{"source": "the supplement of paper PMC11246515", "test": "total protein half-life in vivo (active degradation + dilution); higher = more stable protein", "key": {"[1]": {"conditions": "E. coli NCM3722 delta-clpP delta-lon delta-hslV, growth: N-lim chemostat, doubling time 6 h"}, "[2]": {"conditions": "E. coli NCM3722 delta-hslV, growth: N-lim chemostat, doubling time 6 h"}, "[3]": {"conditions": "E. coli NCM3722 delta-lon, growth: N-lim chemostat, doubling time 6 h"}, "[4]": {"conditions": "E. coli NCM3722 delta-smpB, growth: N-lim chemostat, doubling time 6 h"}, "[5]": {"conditions": "wild type E. coli NCM3722, growth: C-lim chemostat, doubling time 3 h"}, "[6]": {"conditions": "wild type E. coli NCM3722, growth: C-lim chemostat, doubling time 6 h"}, "[7]": {"conditions": "wild type E. coli NCM3722, growth: C-lim chemostat, doubling time 12 h"}, "[8]": {"conditions": "wild type E. coli NCM3722, growth: N-lim chemostat, doubling time 6 h"}, "[9]": {"conditions": "wild type E. coli NCM3722, growth: N-lim chemostat, doubling time 12 h"}, "[10]": {"conditions": "wild type E. coli NCM3722, growth: P-lim chemostat, doubling time 6 h"}, "[11]": {"conditions": "wild type E. coli NCM3722, growth: P-lim chemostat, doubling time 12 h"}, "[12]": {"conditions": "E. coli NCM3722 delta-clpP, growth: N-lim chemostat, doubling time 6 h"}}, "note": "± gives the standard deviation of the averaged measurements.", "data": [{"sequence": "MIEIESRELADIPVLHAYPVGQKDTPLPCVIFYHGFTSSSLVYSYFAVALAQAGLRVIMPDAPDHGSRFSGDAARRLNQFWQILLQSMQEFTTLRAAIAEENWLLDDRLAVGGASMGAMTALGITARHPTVRCTASMMGSGYFTSLARSLFPPLIPETAAQQNEFNNIVAPLAEWEATNHLEQLSDRPLLLWHGLDDDVVPADESLRLQQALSETGRDKLLTCSWQPGVRHRITPEALDAAVTFFRQHL", "values": [{"measurement": "total protein half-life in vivo", "setting": "[1]", "value": "4.25 ± 0.61", "unit": "h"}, {"measurement": "total protein half-life in vivo", "setting": "[2]", "value": "4.061 ± 0.029", "unit": "h"}, {"measurement": "total protein half-life in vivo", "setting": "[3]", "value": "4.32 ± 0.38", "unit": "h"}, {"measurement": "total protein half-life in vivo", "setting": "[4]", "value": "3.95 ± 0.12", "unit": "h"}, {"measurement": "total protein half-life in vivo", "setting": "[5]", "value": "3.24 ± 0.097", "unit": "h"}, {"measurement": "total protein half-life in vivo", "setting": "[6]", "value": "5.72 ± 0.33", "unit": "h"}, {"measurement": "total protein half-life in vivo", "setting": "[7]", "value": "11 ± 0.45", "unit": "h"}, {"measurement": "total protein half-life in vivo", "setting": "[8]", "value": "4.11 ± 0.3", "unit": "h"}, {"measurement": "total protein half-life in vivo", "setting": "[9]", "value": "6.87 ± 0.64", "unit": "h"}, {"measurement": "total protein half-life in vivo", "setting": "[10]", "value": "5.95 ± 0.17", "unit": "h"}, {"measurement": "total protein half-life in vivo", "setting": "[11]", "value": "12.2 ± 0.79", "unit": "h"}]}, {"sequence": "MSDKFGEGRDPYLYPGLDIMRNRLNIRQQQRLEQAAYEMTALRAATIELGPLVRGLPHLRTIHRQLYQDIFDWAGQLREVDIYQGDTPFCHFAYIEKEGNALMQDLEEEGYLVGLEKAKFVERLAHYYCEINVLHPFRVGSGLAQRIFFEQLAIHAGYQLSWQGIEKEAWNQANQSGAMGDLTALQMIFSKVVSEAGESE", "values": [{"measurement": "total protein half-life in vivo", "setting": "[1]", "value": "4.96 ± 0.27", "unit": "h"}, {"measurement": "total protein half-life in vivo", "setting": "[12]", "value": "4.09 ± 0.47", "unit": "h"}, {"measurement": "total protein half-life in vivo", "setting": "[2]", "value": "4.81 ± 0.64", "unit": "h"}, {"measurement": "total protein half-life in vivo", "setting": "[3]", "value": "4.4 ± 0.57", "unit": "h"}, {"measurement": "total protein half-life in vivo", "setting": "[4]", "value": "4.69 ± 0.42", "unit": "h"}, {"measurement": "total protein half-life in vivo", "setting": "[6]", "value": "6.07 ± 0.18", "unit": "h"}, {"measurement": "total protein half-life in vivo", "setting": "[7]", "value": "10.2 ± 1.9", "unit": "h"}, {"measurement": "total protein half-life in vivo", "setting": "[8]", "value": "4.39 ± 0.17", "unit": "h"}, {"measurement": "total protein half-life in vivo", "setting": "[9]", "value": "7.12 ± 0.43", "unit": "h"}, {"measurement": "total protein half-life in vivo", "setting": "[10]", "value": "6.02 ± 0.4", "unit": "h"}, {"measurement": "total protein half-life in vivo", "setting": "[11]", "value": "7.72 ± 3.9", "unit": "h"}]}, {"sequence": "MISLFDMFKVGIGPSSSHTVGPMKAGKQFVDDLVEKGLLDSVTRVAVDVYGSLSLTGKGHHTDIAIIMGLAGNEPATVDIDSIPGFIRDVEERERLLLAQGRHEVDFPRDNGMRFHNGNLPLHENGMQIHAYNGDEVVYSKTYYSIGGGFIVDEEHFGQDAANEVSVPYPFKSATELLAYCNETGYSLSGLAMQNELALHSKKEIDEYFAHVWQTMQACIDRGMNTEGVLPGPLRVPRRASALRRMLVSSDKLSNDPMNVIDWVNMFALAVNEENAAGGRVVTAPTNGACGIVPAVLAYYDHFIESVSPDIYTRYFMAAGAIGALYKMNASISGAEVGCQGEVGVACSMAAAGLAELLGGSPEQVCVAAEIGMEHNLGLTCDPVAGQVQVPCIERNAIASVKAINAARMALRRTSAPRVSLDKVIETMYETGKDMNAKYRETSRGGLAIKVQCD", "values": [{"measurement": "total protein half-life in vivo", "setting": "[1]", "value": "3.76 ± 0.4", "unit": "h"}, {"measurement": "total protein half-life in vivo", "setting": "[12]", "value": "3.54 ± 0.37", "unit": "h"}, {"measurement": "total protein half-life in vivo", "setting": "[2]", "value": "1.9 ± 0.28", "unit": "h"}, {"measurement": "total protein half-life in vivo", "setting": "[3]", "value": "2.48 ± 0.38", "unit": "h"}, {"measurement": "total protein half-life in vivo", "setting": "[4]", "value": "1.78 ± 0.14", "unit": "h"}, {"measurement": "total protein half-life in vivo", "setting": "[5]", "value": "1.52 ± 0.084", "unit": "h"}, {"measurement": "total protein half-life in vivo", "setting": "[6]", "value": "2.267 ± 0.0096", "unit": "h"}, {"measurement": "total protein half-life in vivo", "setting": "[7]", "value": "3.25 ± 0.43", "unit": "h"}, {"measurement": "total protein half-life in vivo", "setting": "[8]", "value": "2.08 ± 0.26", "unit": "h"}, {"measurement": "total protein half-life in vivo", "setting": "[9]", "value": "2.57 ± 0.32", "unit": "h"}, {"measurement": "total protein half-life in vivo", "setting": "[10]", "value": "3.4 ± 0.63", "unit": "h"}, {"measurement": "total protein half-life in vivo", "setting": "[11]", "value": "7.67 ± 0.65", "unit": "h"}]}, {"sequence": "MARARGRGRRDLKSEINIVPLLDVLLVLLLIFMATAPIITQSVEVDLPDATESQAVSSNDNPPVIVEVSGIGQYTVVVEKDRLERLPPEQVVAEVSSRFKANPKTVFLIGGAKDVPYDEIIKALNLLHSAGVKSVGLMTQPI [P0ABV6]", "values": [{"measurement": "total protein half-life in vivo", "setting": "[12]", "value": "5.42 ± 0.13", "unit": "h"}, {"measurement": "total protein half-life in vivo", "setting": "[2]", "value": "6.44 ± 0.99", "unit": "h"}, {"measurement": "total protein half-life in vivo", "setting": "[3]", "value": "5.7 ± 0.25", "unit": "h"}, {"measurement": "total protein half-life in vivo", "setting": "[4]", "value": "5.74 ± 0.59", "unit": "h"}, {"measurement": "total protein half-life in vivo", "setting": "[5]", "value": "3.106 ± 0.028", "unit": "h"}, {"measurement": "total protein half-life in vivo", "setting": "[6]", "value": "5.686 ± 0.01", "unit": "h"}, {"measurement": "total protein half-life in vivo", "setting": "[7]", "value": "11.9 ± 0.7", "unit": "h"}, {"measurement": "total protein half-life in vivo", "setting": "[8]", "value": "5.73 ± 0.26", "unit": "h"}, {"measurement": "total protein half-life in vivo", "setting": "[9]", "value": "12.6 ± 0.73", "unit": "h"}, {"measurement": "total protein half-life in vivo", "setting": "[10]", "value": "5.45 ± 0.66", "unit": "h"}, {"measurement": "total protein half-life in vivo", "setting": "[11]", "value": "11.81 ± 0.036", "unit": "h"}]}, {"sequence": "MRLNPGQQQAVEFVTGPCLVLAGAGSGKTRVITNKIAHLIRGCGYQARHIAAVTFTNKAAREMKERVGQTLGRKEARGLMISTFHTLGLDIIKREYAALGMKANFSLFDDTDQLALLKELTEGLIEDDKVLLQQLISTISNWKNDLKTPSQAAASAIGERDRIFAHCYGLYDAHLKACNVLDFDDLILLPTLLLQRNEEVRKRWQNKIRYLLVDEYQDTNTSQYELVKLLVGSRARFTVVGDDDQSIYSWRGARPQNLVLLSQDFPALKVIKLEQNYRSSGRILKAANILIANNPHVFEKRLFSELGYGAELKVLSANNEEHEAERVTGELIAHHFVNKTQYKDYAILYRGNHQSRVFEKFLMQNRIPYKISGGTSFFSRPEIKDLLAYLRVLTNPDDDSAFLRIVNTPKREIGPATLKKLGEWAMTRNKSMFTASFDMGLSQTLSGRGYEALTRFTHWLAEIQRLAEREPIAAVRDLIHGMDYESWLYETSPSPKAAEMRMKNVNQLFSWMTEMLEGSELDEPMTLTQVVTRFTLRDMMERGESEEELDQVQLMTLHASKGLEFPYVYMVGMEEGFLPHQSSIDEDNIDEERRLAYVGITRAQKELTFTLCKERRQYGELVRPEPSRFLLELPQDDLIWEQERKVVSAEERMQKGQSHLANLKAMMAAKRGK", "values": [{"measurement": "total protein half-life in vivo", "setting": "[1]", "value": "4.75 ± 0.66", "unit": "h"}, {"measurement": "total protein half-life in vivo", "setting": "[12]", "value": "3.564 ± 0.03", "unit": "h"}, {"measurement": "total protein half-life in vivo", "setting": "[2]", "value": "3.26 ± 0.39", "unit": "h"}, {"measurement": "total protein half-life in vivo", "setting": "[3]", "value": "3.59 ± 0.24", "unit": "h"}, {"measurement": "total protein half-life in vivo", "setting": "[4]", "value": "2.97 ± 0.12", "unit": "h"}, {"measurement": "total protein half-life in vivo", "setting": "[5]", "value": "2.89 ± 0.43", "unit": "h"}, {"measurement": "total protein half-life in vivo", "setting": "[6]", "value": "4.89 ± 0.71", "unit": "h"}, {"measurement": "total protein half-life in vivo", "setting": "[7]", "value": "6.36 ± 0.89", "unit": "h"}, {"measurement": "total protein half-life in vivo", "setting": "[8]", "value": "3.27 ± 0.52", "unit": "h"}, {"measurement": "total protein half-life in vivo", "setting": "[9]", "value": "4.74 ± 0.2", "unit": "h"}, {"measurement": "total protein half-life in vivo", "setting": "[10]", "value": "5.75 ± 0.71", "unit": "h"}, {"measurement": "total protein half-life in vivo", "setting": "[11]", "value": "8.39 ± 0.72", "unit": "h"}]}, {"sequence": "MPLHNLTRFPRLEFIGAPTPLEYLPRFSDYLGREIFIKRDDVTPMAMGGNKLRKLEFLAADALREGADTLITAGAIQSNHVRQTAAVAAKLGLHCVALLENPIGTTAENYLTNGNRLLLDLFNTQIEMCDALTDPNAQLEELATRVEAQGFRPYVIPVGGSNALGALGYVESALEIAQQCEGAVNISSVVVASGSAGTHAGLAVGLEHLMPESELIGVTVSRSVADQLPKVVNLQQAIAKELELTASAEILLWDDYFAPGYGVPNDEGMEAVKLLARLEGILLDPVYTGKAMAGLIDGISQKRFKDEGPILFIHTGGAPALFAYHPHV", "values": [{"measurement": "total protein half-life in vivo", "setting": "[12]", "value": "5.78 ± 0.85", "unit": "h"}, {"measurement": "total protein half-life in vivo", "setting": "[2]", "value": "5.5 ± 0.72", "unit": "h"}, {"measurement": "total protein half-life in vivo", "setting": "[3]", "value": "6.76 ± 0.46", "unit": "h"}, {"measurement": "total protein half-life in vivo", "setting": "[4]", "value": "5.72 ± 0.2", "unit": "h"}, {"measurement": "total protein half-life in vivo", "setting": "[5]", "value": "3.17 ± 0.16", "unit": "h"}, {"measurement": "total protein half-life in vivo", "setting": "[6]", "value": "5.52 ± 0.73", "unit": "h"}, {"measurement": "total protein half-life in vivo", "setting": "[8]", "value": "5.78 ± 0.087", "unit": "h"}, {"measurement": "total protein half-life in vivo", "setting": "[9]", "value": "11.6 ± 0.43", "unit": "h"}, {"measurement": "total protein half-life in vivo", "setting": "[10]", "value": "5.91 ± 0.16", "unit": "h"}, {"measurement": "total protein half-life in vivo", "setting": "[11]", "value": "12.259 ± 0.0094", "unit": "h"}]}]}
